Reference: patent US20040151713

T1: GST-Cdc25B (C terminal peptide: 281-381aa), P30305
T1 chain: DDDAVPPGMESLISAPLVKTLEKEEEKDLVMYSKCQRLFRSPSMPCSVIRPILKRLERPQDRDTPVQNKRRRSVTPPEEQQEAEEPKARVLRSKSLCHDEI

T2: GST-Cdc25C (C terminal peptide: 195-260aa), P30307
T2 chain: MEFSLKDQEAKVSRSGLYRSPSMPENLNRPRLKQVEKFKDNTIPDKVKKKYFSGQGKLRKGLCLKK


Key:
[1] = molecular target: GST-Cdc25C S216A [GST: P08515]
[2] = molecular target: T1, GST-Cdc25B (C terminal peptide: …)
[3] = molecular target: GST-fusion recombinant protein containing human Weel (full-length protein), P30291
[4] = molecular target: GST-Cdc25B S309A [GST: P08515]
[5] = molecular target: T2, GST-Cdc25C (C terminal peptide: …)

Sequence of GST-fusion recombinant protein containing human Weel (full-length protein), P30291 (P30291 whole entry, looked up, the tested form may be a part): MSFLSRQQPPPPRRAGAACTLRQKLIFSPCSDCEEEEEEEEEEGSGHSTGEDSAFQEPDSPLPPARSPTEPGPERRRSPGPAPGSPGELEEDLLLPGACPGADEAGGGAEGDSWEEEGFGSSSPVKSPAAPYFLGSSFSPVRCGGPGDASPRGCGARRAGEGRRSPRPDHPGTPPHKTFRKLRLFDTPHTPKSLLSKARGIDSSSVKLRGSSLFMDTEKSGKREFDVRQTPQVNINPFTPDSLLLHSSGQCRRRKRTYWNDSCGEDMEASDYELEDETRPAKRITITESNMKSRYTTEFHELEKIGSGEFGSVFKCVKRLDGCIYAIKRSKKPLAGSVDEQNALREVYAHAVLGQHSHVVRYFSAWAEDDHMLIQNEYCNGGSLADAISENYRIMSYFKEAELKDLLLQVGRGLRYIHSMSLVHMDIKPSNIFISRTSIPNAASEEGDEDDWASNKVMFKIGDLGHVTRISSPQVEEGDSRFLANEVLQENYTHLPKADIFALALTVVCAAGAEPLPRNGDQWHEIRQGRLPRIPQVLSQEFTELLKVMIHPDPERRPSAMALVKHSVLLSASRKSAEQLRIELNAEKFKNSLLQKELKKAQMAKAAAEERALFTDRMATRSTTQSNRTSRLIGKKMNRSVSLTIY

Protein | in vitro kinase assay (32P autoradiography) [1] | in vitro kinase assay (32P autoradiography) [2] | in vitro kinase assay (32P autoradiography) [3] | in vitro kinase assay (32P autoradiography) [4] | in vitro kinase assay (32P autoradiography) [5]
hCdr2 wild-type (wt) recombinant protein with c-Myc tag (protein) MSSGAKEGGGGSPAYHLPHPHPHPPQHAQYVGPYRLEKTLGKGQTGLVKLGVHCITGQKVAIKIVNREKLSESVLMKVEREIAILKLIEHPHVLKLHDVYENKKYLYLVLEHVSGGELFDYLVKKGRLTPKEARKFFRQIVVCAGLCHSYSICHRDLKPENLLLDEKNNIRIADFGMASLQVGDSLLETSCGSPHYACPEVIKGEKYDGRRADMWSCGVILFALLVGALPFDDDNLRQLLEKVKRGVFHMPHFIPPDCQSLLRGMIEVEPEKRLSLEQIQKHPWYLGGKHEPDPCLEPAPGRRVAMRSLPSNGELDPDVLESMASLGCFRDRERLHRELRSEEENQEKMIYYLLLDRKERYPSCEDQDLPPRNDVDPPRKRVDSPMLSRHGKRRPERKSMEVLSITDAGGGGSPVPTRRALEMAQHSQRSRSVSGASTGLSSSPLSSPRSPVFSFSPEPGAGDEARGGGSPTSKTQTLPGPPGSPRSSGGTPLHSPLHTPRASPTGTPGTTPPPSPGGGVGGAAWRSRLNSIRNSFLGSPRFHRRKMQVPTAEEMSSLTPESSPELAKRSWFGNFISLDKEEQIFLVLKDKPLSSIKADIVHAFLSIPSLSHSVLSQTSFRAEYKASGGPSVFQKPVRFQVDISSSEGPEPSPRRDGSGGGGIYSVTFTLISGPSRRFKRVVETIQAQLLSTHDQPSVQALADEKNGAQTRPAGAPPRSLQPPPGRPDPELSSSPRRGPPKDKKLLATNGTPLP | When GST-Cdc25C S216A was used as a substrate, phosphorylation of the hCdr2 wt protein did not occur | the hCdr2 wt protein severely phosphorylated the GST-Cdc25B (C terminal peptide: 282-381aa) | the human Weel could not be phosphorylated | When GST-Cdc25B S309A was used as a substrate, even the hCdr2 wt protein did not provide phosphorylation action | the hCdr2 wt protein phosphorylated GST-Cdc25C (C terminal peptide: 195-260aa)
hCdr2 K59A kinase-dead mutated protein with c-Myc tag (protein) MSSGAKEGGGGSPAYHLPHPHPHPPQHAQYVGPYRLEKTLGKGQTGLVKLGVHCITGQAVAIKIVNREKLSESVLMKVEREIAILKLIEHPHVLKLHDVYENKKYLYLVLEHVSGGELFDYLVKKGRLTPKEARKFFRQIVVCAGLCHSYSICHRDLKPENLLLDEKNNIRIADFGMASLQVGDSLLETSCGSPHYACPEVIKGEKYDGRRADMWSCGVILFALLVGALPFDDDNLRQLLEKVKRGVFHMPHFIPPDCQSLLRGMIEVEPEKRLSLEQIQKHPWYLGGKHEPDPCLEPAPGRRVAMRSLPSNGELDPDVLESMASLGCFRDRERLHRELRSEEENQEKMIYYLLLDRKERYPSCEDQDLPPRNDVDPPRKRVDSPMLSRHGKRRPERKSMEVLSITDAGGGGSPVPTRRALEMAQHSQRSRSVSGASTGLSSSPLSSPRSPVFSFSPEPGAGDEARGGGSPTSKTQTLPGPPGSPRSSGGTPLHSPLHTPRASPTGTPGTTPPPSPGGGVGGAAWRSRLNSIRNSFLGSPRFHRRKMQVPTAEEMSSLTPESSPELAKRSWFGNFISLDKEEQIFLVLKDKPLSSIKADIVHAFLSIPSLSHSVLSQTSFRAEYKASGGPSVFQKPVRFQVDISSSEGPEPSPRRDGSGGGGIYSVTFTLISGPSRRFKRVVETIQAQLLSTHDQPSVQALADEKNGAQTRPAGAPPRSLQPPPGRPDPELSSSPRRGPPKDKKLLATNGTPLP | – | the weak phosphorylating action exhibited by the mock and hCdr2 K59A | – | – | but failed to phosphorylate the hCdr2 K59A protein
